The nature of this data set: amyloid nucleation score (Sup35N fusion, yeast selection) (log enrichment); library NNK3; higher = more nucleation; inactive = no reads after selection. A digest of the protocol: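 The nucleation score, computed with DiMSum, is the log enrichment of output over input reads, centred on the mode score of non-aggregating sequences. Sequences with under 100 input reads were dropped. Reads were generated by Illumina sequencing of plasmid inserts from psi-negative yeast with Sup35N fused to peptides of 20 random codons, induced with 100 μM copper sulfate for 24 hours and grown 7 days at 30°C on medium lacking adenine and uracil.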

± gives the uncertainty stated by the source.

For KAPDVLVNGRIL, the amyloid nucleation score result was “inactive”.

As to LNSFFAAIHILMGHFKRILS, the amyloid nucleation score entry is “inactive”.

YSWSMLL came in with an amyloid nucleation score of 0.077 ± 0.54.

With LIIMNVKSSSSHKRAGVST, the amyloid nucleation score entry was “inactive”.

For the substance DCCGLVAYNLVFRICGACLG, the amyloid nucleation score result was “inactive”.

In the case of ACTFITRMYCGWHSS, the amyloid nucleation score entry is “inactive”.

On to ANVDTIDFASAVILF, for which the amyloid nucleation score result is “inactive”.

ATTVNGFIISHRVYNAGSWY showed an amyloid nucleation score of 1.28 ± 0.1.

With EFKIALRRPINERAESLVTR, the amyloid nucleation score entry is “inactive”.

FNQAHSVTTDREAYRGRCQG: the amyloid nucleation score result is “inactive”.

Take FGVVDYARRSWGYGSCGGHV: the amyloid nucleation score result was “inactive”.

As for CRFWGFDSSINEVGLMQNHL, the amyloid nucleation score result is “inactive”.

Regarding LFWPICFHNMTFVLYTSLLN, the amyloid nucleation score result was “inactive”.

Consider CFSVGKWSIFRN, for which the amyloid nucleation score result is “inactive”.

As to NYRAPMCCELFNKWVF, the amyloid nucleation score result is “inactive”.

As to MMPIRKKMNHRVTWEILWQR, the amyloid nucleation score entry was “inactive”.

As for ACSDFSE, the amyloid nucleation score result is “inactive”.

In the case of EIRTRPKRSVVGSRVSMGVS, the amyloid nucleation score entry is “inactive”.

Turning to WRVYVFNVLETYMLRVKWVG, the amyloid nucleation score result was “inactive”.

On to CYEGR, for which the amyloid nucleation score result is “inactive”.

Take LYGVNSCLIH: the amyloid nucleation score entry is “inactive”.

As to RVREPSVAVRECWCYLGDAV, the amyloid nucleation score result is “inactive”.

Regarding PLYVQSG, the amyloid nucleation score result was “inactive”.

With NARVDVRRVVLHAKMPSFTI, the amyloid nucleation score entry is “inactive”.

On to RSLSRNFSLCMGGSDRSGGL, for which the amyloid nucleation score result is “inactive”.

In turn, RMIRNIFGSHAVLCFGCKC showed an amyloid nucleation score of 2.9 ± 0.068.

On to LSYKIIYTGIGCEYAYGFIE, for which the amyloid nucleation score entry is “inactive”.

As to CLYPGRSWVTGAGITVWSLV, the amyloid nucleation score result was “inactive”.

In the case of DNKVFTLSNQA, the amyloid nucleation score entry is “inactive”.

As to TVMPIYQCSIGVKFSCDSAK, the amyloid nucleation score is 1.53 ± 0.072.

For DYVRKWS, the amyloid nucleation score entry is “inactive”.

With WFPSKYIATMFCLQVFLVKP, the amyloid nucleation score result is “inactive”.

PVLARYL: the amyloid nucleation score entry was “inactive”.

The substance EAHGIQLMMGLFAFR registered an amyloid nucleation score of 1.11 ± 0.15.

As for YCNMVWT, the amyloid nucleation score result was “inactive”.

VACITLCNIVQSIQMSIIMK came in with an amyloid nucleation score of 1.45 ± 0.061.

DDDEVASCLPYWRCAALKSG: the amyloid nucleation score result is “inactive”.

Turning to WQHSRSLDTSACCPT, the amyloid nucleation score entry was “inactive”.

In the case of LVVLLRFCGRAPGIGQSMGD, the amyloid nucleation score result was “inactive”.

On to ILSNDEFTCKFCCSCSYRGG, for which the amyloid nucleation score is 0.956 ± 0.31.

For LTYTHLCEPSEFR, the amyloid nucleation score result was “inactive”.

For the substance VLNFWGAVFPIIMLFYESVY, the amyloid nucleation score came out at 2.03 ± 0.096.

In the case of VWLILRFMWAVVRTNRSNLD, the amyloid nucleation score entry is “inactive”.

On to ARASVFAMGDTPLWSG, for which the amyloid nucleation score result is “inactive”.

As to SFWIV, the amyloid nucleation score entry was “inactive”.

Consider GIFKFMAV, for which the amyloid nucleation score entry was “inactive”.

Substance SFLVSSINNVQGFFSVNGYV returned an amyloid nucleation score of 0.085 ± 0.26.

Consider LFFKP, for which the amyloid nucleation score result is “inactive”.

With WLNVLNSYSDRSYLKETRLR, the amyloid nucleation score result is “inactive”.

Regarding SLSYSSLCSALMWVHVKSYD, the amyloid nucleation score entry was “inactive”.

MWSVPLKSQAILYTFDCVSL displayed an amyloid nucleation score of 0.174 ± 0.44.

Turning to ILKKRFRMVPLK, the amyloid nucleation score result is “inactive”.

WQWVM: the amyloid nucleation score result is “inactive”.

YIAGFQFCSIIFQRRTVQLL: the amyloid nucleation score result is “inactive”.

SVDCYCTKKTYMQWSGSVRH registered an amyloid nucleation score of 0.66 ± 0.23.

As to FKIMD, the amyloid nucleation score entry was “inactive”.

FSVGFYFIYMTLKCGSCVQW: the amyloid nucleation score is -0.362 ± 1.1.

In the case of LFKYGALLCVEVQY, the amyloid nucleation score result is “inactive”.

FSMVCSFKWL: the amyloid nucleation score entry is “inactive”.

On to RQCCCSLKHIVWQPLGLCRK, for which the amyloid nucleation score entry was “inactive”.

YALMLVFERHSRAARSVGMG: the amyloid nucleation score entry was “inactive”.

TPRFMVGAVATEGAHIFLRV: the amyloid nucleation score entry is “inactive”.

On to IELRM, for which the amyloid nucleation score result was “inactive”.

In turn, NMIIVDFDNLLYNMNYHLAG yielded an amyloid nucleation score of 1.49 ± 0.11.

ISSNVWARDIRNWLNVTGYC: the amyloid nucleation score result was “inactive”.

For SMSPTKLYSSIMVNSWEWLF, the amyloid nucleation score entry was “inactive”.

Consider KILLHRRHVTPCFKCLNRLD, for which the amyloid nucleation score entry was “inactive”.

For the substance FLTHVHQINADAFYAIL, the amyloid nucleation score worked out at 1.84 ± 0.11.

RYGFDRIPIFLLNVAMNVYP: the amyloid nucleation score worked out at 0.535 ± 0.58.

As for KMHWNAGDQLYVRSPTHSLR, the amyloid nucleation score entry is “inactive”.

ANAISWGYLIKDYS: the amyloid nucleation score result is “inactive”.

With SSKSSRLNMTVFSKTVMTIM, the amyloid nucleation score result is “inactive”.

Consider KLGIGFPWCGRLHIEHSKMR, for which the amyloid nucleation score entry was “inactive”.

VGRYPSLVSLNDTCNDVTRI: the amyloid nucleation score entry was “inactive”.

GTEVILSLVSESTGKRAARL: the amyloid nucleation score entry is “inactive”.

On to YLFTFVWQTTSLINVIVALI, for which the amyloid nucleation score result is “inactive”.

For MKGVLAKNGYIDGVLGNTAM, the amyloid nucleation score result is “inactive”.

Turning to KYLWDLATHNIFAGSKMMDN, the amyloid nucleation score result is “inactive”.

Turning to GLFSLIIR, the amyloid nucleation score entry is “inactive”.

Turning to RFDIK, the amyloid nucleation score result was “inactive”.

For LSRFQVGFHQIDIMRGDVWK, the amyloid nucleation score entry was “inactive”.

Consider AKCMSDFVECRKSRRMMAGW, for which the amyloid nucleation score result is “inactive”.

Take VVDKILITINRSLLLSGADN: the amyloid nucleation score result is “inactive”.

For APIKIRFD, the amyloid nucleation score result was “inactive”.

For the substance LSVNYKLGQYRTLWFHHSLG, the amyloid nucleation score result is “inactive”.

Regarding IILTIGRMGLFNMAK, the amyloid nucleation score is -0.152 ± 0.47.

NTFCGVEISSYIGAARKCLK: the amyloid nucleation score result was “inactive”.

On to FICILIISKGSIVPFFLRHR, for which the amyloid nucleation score entry was “inactive”.

In turn, TAVWRFATSGKFFYSQSLGM showed an amyloid nucleation score of 1.41 ± 0.14.

SVCSCNAKYARIGMMLFLLG had an amyloid nucleation score of 1.16 ± 0.075.

Regarding ICGMLR, the amyloid nucleation score result was “inactive”.

CLIFDLSRKKYWVKRDRKAW registered an amyloid nucleation score of 1.91 ± 0.062.

On to SQMSPSNDMWLALNV, for which the amyloid nucleation score result was “inactive”.

For the substance WAKNHPDLIMLIFADTISYN, the amyloid nucleation score came to 2.31 ± 0.058.

Take INYIIVSGSAGIRMTGK: the amyloid nucleation score stood at 2.52 ± 0.064.

With GKSLMK, the amyloid nucleation score entry is “inactive”.

In the case of NHIYGMSAFQSGHCGPCRSN, the amyloid nucleation score entry was “inactive”.

Turning to FDAFM, the amyloid nucleation score entry was “inactive”.

With RFDESTRVCV, the amyloid nucleation score result was “inactive”.

CWKQGLNRYLWW: the amyloid nucleation score came out at 0.752 ± 0.13.

Take KALWCGYE: the amyloid nucleation score entry was “inactive”.

As to CPNMPSSTGTKPSNVMVSFS, the amyloid nucleation score entry is “inactive”.

As for AVNPRQFKFTVDEKSIGRVA, the amyloid nucleation score entry was “inactive”.

Take FWKNHRAIHSMFQRHLRHTF: the amyloid nucleation score result is “inactive”.

In the case of AINVRRSLTTYPNFLDTVRS, the amyloid nucleation score entry is “inactive”.

TERYATNSLCSGIKMALRQV: the amyloid nucleation score entry was “inactive”.

Turning to RVVGRRSNYFVFLFRTLGRN, the amyloid nucleation score result is “inactive”.

Consider HALSRDVVKMLCSFNNYLTW, for which the amyloid nucleation score entry was “inactive”.

As for GTPALCQ, the amyloid nucleation score entry was “inactive”.

For ETSVTAHHLGIGVLLRFQQ, the amyloid nucleation score entry was “inactive”.

For the substance ACLLKSYFSRYNEKPTCYVT, the amyloid nucleation score result is “inactive”.

Regarding SYQDMLSYNRMR, the amyloid nucleation score entry was “inactive”.

In the case of AGFSVVSRPLFVRQLPV, the amyloid nucleation score result is “inactive”.

For GYVGLHTFSWEDLENRMDKH, the amyloid nucleation score entry is “inactive”.

With MILTKSNSEVFEVGNKKLRV, the amyloid nucleation score entry was “inactive”.

On to MDSCFRYVTYVTVLGLK, for which the amyloid nucleation score entry was “inactive”.

For AHVLVSFCFSFTRSVKFGLV, the amyloid nucleation score entry is “inactive”.

Take HDYDAIRRLSRMCDVVEYSR: the amyloid nucleation score entry is “inactive”.

As to VDSLFSGKNYELECKFDSWI, the amyloid nucleation score result was “inactive”.

Take RIVDGFLTW: the amyloid nucleation score entry was “inactive”.

On to IIRVLNWYHYIEAKTLNSLR, for which the amyloid nucleation score result was “inactive”.

Regarding SDNGEIMILYRLRAVGDFE, the amyloid nucleation score entry is “inactive”.

Take NFGHMY: the amyloid nucleation score result is “inactive”.

GHLSIHREGFNLVSHLCANF: the amyloid nucleation score entry is “inactive”.

Regarding TSLLILRCSGE, the amyloid nucleation score entry is “inactive”.

ILFSISSVMF came in with an amyloid nucleation score of 0.605 ± 0.19.

Consider KLCVESRIIYTFV, for which the amyloid nucleation score entry is “inactive”.

Regarding FGEFKDCQGFSKF, the amyloid nucleation score entry was “inactive”.

Consider SSLLYIDRIVLSRTVIPMLL, for which the amyloid nucleation score entry is “inactive”.

Consider CYDTFGLFYCFLVWVWDLIV, for which the amyloid nucleation score result is “inactive”.

For FGADSDQHLRRLLGAEGWCR, the amyloid nucleation score entry is “inactive”.

The values are drawn from the supplement of paper PMC12042874.
